Assay results reported in patent US20030049732A1 (Human Genome Sciences, published 2003).

Target: T1, Apaf-1 (UniProt O14727-3 1-1194, limits assumed)
T1 sequence (looked up): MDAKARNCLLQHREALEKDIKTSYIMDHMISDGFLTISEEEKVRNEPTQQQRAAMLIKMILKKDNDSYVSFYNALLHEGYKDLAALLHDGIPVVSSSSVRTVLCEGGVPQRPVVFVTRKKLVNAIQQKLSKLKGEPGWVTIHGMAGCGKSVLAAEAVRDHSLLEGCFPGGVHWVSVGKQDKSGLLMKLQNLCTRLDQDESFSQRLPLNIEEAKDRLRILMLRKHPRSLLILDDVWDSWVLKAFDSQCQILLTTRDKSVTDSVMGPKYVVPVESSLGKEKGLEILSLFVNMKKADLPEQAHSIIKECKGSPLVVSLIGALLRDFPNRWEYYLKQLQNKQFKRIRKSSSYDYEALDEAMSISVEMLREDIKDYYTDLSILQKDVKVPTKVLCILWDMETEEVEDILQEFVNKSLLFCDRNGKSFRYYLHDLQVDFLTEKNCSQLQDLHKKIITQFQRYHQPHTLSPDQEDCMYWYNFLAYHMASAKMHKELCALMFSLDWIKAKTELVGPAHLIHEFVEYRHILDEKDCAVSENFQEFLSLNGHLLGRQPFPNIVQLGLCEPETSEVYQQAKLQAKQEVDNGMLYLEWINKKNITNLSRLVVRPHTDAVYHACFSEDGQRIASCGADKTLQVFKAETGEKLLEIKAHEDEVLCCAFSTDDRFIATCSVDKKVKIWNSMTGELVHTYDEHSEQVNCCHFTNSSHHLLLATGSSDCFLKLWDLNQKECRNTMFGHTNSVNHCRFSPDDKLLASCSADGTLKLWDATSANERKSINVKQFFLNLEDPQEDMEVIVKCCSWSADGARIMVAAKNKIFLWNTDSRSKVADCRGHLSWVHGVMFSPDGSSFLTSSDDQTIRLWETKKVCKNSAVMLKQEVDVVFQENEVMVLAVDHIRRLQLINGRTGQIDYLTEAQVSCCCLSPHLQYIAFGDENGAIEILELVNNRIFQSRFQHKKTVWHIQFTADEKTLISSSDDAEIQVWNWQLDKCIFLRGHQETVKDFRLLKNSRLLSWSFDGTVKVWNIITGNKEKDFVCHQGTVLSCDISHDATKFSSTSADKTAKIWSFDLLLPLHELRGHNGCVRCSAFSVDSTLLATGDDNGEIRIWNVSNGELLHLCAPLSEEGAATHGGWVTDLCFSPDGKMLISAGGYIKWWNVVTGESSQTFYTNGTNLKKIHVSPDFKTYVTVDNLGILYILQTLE
Experiment: co-immunoprecipitation, tagged proteins transiently expressed in 293T cells
Text: The CARD and its structurally related death effector domain (DED) are peptide motifs that mediate interactions between apoptosis-regulatory proteins (Science 281:1301 (1998); Hofmann et al., Trends Biochem. Sci. 22:155 (1998)).

binding result: no binding
B1: Nod1 (other)
chain: MEEQGHSEMEIIPSESHPHIQLLKSNRELLVTHIRNTQCLVDNLLKNDYFSAEDAEIVCACPTQPDKVRKILDLVQSKGEEVSEFFLYLLQQLADAYVDLRPWLLEIGFSPSLLTQSKVVVNTDPVSRYTQQLRHHLGRDSKFVLCYAQKEELLLEEIYMDTIMELVGFSNESLGSLNSLACLLDHTTGILNEQGETIFILGDAGVGKSMLLQRLQSLWATGRLDAGVKFFFHFRCRMFSCFKESDRLCLQDLLFKHYCYPERDPEEVFAFLLRFPHVALFTFDGLDELHSDLDLSRVPDSSCPWEPAHPLVLLANLLSGKLLKGASKLLTARTGIEVPRQFLRKKVLLRGFSPSHLRAYARRMFPERALQDRLLSQLEANPNLCSLCSVPLFCWIIFRCFQHFRAAFEGSPQLPDCTMTLTDVFLLVTEVHLNRMQPSSLVQRNTRSPVETLHAGRDTLCSLGQVAHRGMEKSLFVFTQEEVQASGLQERDMQLGFLRALPELGPGGDQQSYEFFHLTLQAFFTAFFLVLDDRVGTQELLRFFQEWMPPAGAATTSCYPPFLPFQCLQGSGPAREDLFKNKDHFQFTNLFLCGLLSKAKQKLLRHLVPAAALRRKRKALWAHLFSSLRGYLKSLPRVQVESFNQVQAMPTFIWMLRCIYETQSQKVGQLAARGICANYLKLTYCNACSADCSALSFVLHHFPKRLALDLDNNNLNDYGVRELQPCFSRLTVLRLSVNQITDGGVKVLSEELTKYKIVTYLGLYNNQITDVGARYVTKILDECKGLTHLKLGKNKITSEGGKYLALAVKNSKSISEVGMWGNQVGDEGAKAFAEALRNHPSLTTLSLASNGISTEGGKSLARALQQNTSLEILWLTQNELNDEVAESLAEMLKVNQTLKHLWLIQNQITAKGTAQLADALQSNTGITEICLNGNLIKPEEAKVYEDEKRIICF
notes: also called wild-type Nod1; WT Nod1
